Experimental data taken from patent US20180155451A1 (published 2018).

These binders were tested against T1, FcγRIa extracellular domain with C-terminal His tag (human, UniProt P12314 16-292) (assay: SPR Biacore, relative FcγRIa binding vs GpH7-B3/GpL16-k0).
T1 construct: extracellular domain; also called FcgRI; CD64; not shown: His tag at the C terminus
T1 sequence (P12314 16-292): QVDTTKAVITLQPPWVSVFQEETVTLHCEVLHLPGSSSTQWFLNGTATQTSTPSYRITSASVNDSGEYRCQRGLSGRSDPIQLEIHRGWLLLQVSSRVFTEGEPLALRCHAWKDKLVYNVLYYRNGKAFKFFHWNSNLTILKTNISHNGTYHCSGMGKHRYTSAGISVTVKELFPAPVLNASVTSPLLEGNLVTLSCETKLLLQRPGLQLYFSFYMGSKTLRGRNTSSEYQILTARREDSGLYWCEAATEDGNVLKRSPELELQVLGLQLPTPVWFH

Ho/Con_1a | Binder
105 % of HoCon Ab (=100) | GpH7-B3 variant S337_03V/GpL16-k0 (antibody, human IgG1, kappa, mutation in both H chains; also called Ho Ab S337_03V; S337V) heavy: not shown light: DIVMTQSPLSLPVTPGEPASISCQASESLVHSNRNTYLHWYLQKPGQSPQLLIYKVSNRFSGVPDRFSGSGSGTDFTLKISRVEAEDVGVYYCSQNTHVPPTFGQGTKVEIERTVAAPSVFIFPPSDEQLKSGTASVVCLLNNFYPREAKVQWKVDNALQSGNSQESVTEQDSKDSTYSLSSTLTLSKADYEKHKVYACEVTHQGLSSPVTKSFNRGEC
106 % of HoCon Ab (=100) | GpH7-B3 variant T335_15Y/GpL16-k0 (antibody, human IgG1, kappa, mutation in both H chains; also called Ho Ab T335_15Y; T335Y) heavy: not shown light: DIVMTQSPLSLPVTPGEPASISCQASESLVHSNRNTYLHWYLQKPGQSPQLLIYKVSNRFSGVPDRFSGSGSGTDFTLKISRVEAEDVGVYYCSQNTHVPPTFGQGTKVEIERTVAAPSVFIFPPSDEQLKSGTASVVCLLNNFYPREAKVQWKVDNALQSGNSQESVTEQDSKDSTYSLSSTLTLSKADYEKHKVYACEVTHQGLSSPVTKSFNRGEC
105 % of HoCon Ab (=100) | GpH7-B3 variant S337_08L/GpL16-k0 (antibody, human IgG1, kappa, mutation in both H chains; also called Ho Ab S337_08L; S337L) heavy: not shown light: DIVMTQSPLSLPVTPGEPASISCQASESLVHSNRNTYLHWYLQKPGQSPQLLIYKVSNRFSGVPDRFSGSGSGTDFTLKISRVEAEDVGVYYCSQNTHVPPTFGQGTKVEIERTVAAPSVFIFPPSDEQLKSGTASVVCLLNNFYPREAKVQWKVDNALQSGNSQESVTEQDSKDSTYSLSSTLTLSKADYEKHKVYACEVTHQGLSSPVTKSFNRGEC
106 % of HoCon Ab (=100) | GpH7-B3 variant S337_09D/GpL16-k0 (antibody, human IgG1, kappa, mutation in both H chains; also called Ho Ab S337_09D; S337D) heavy: not shown light: DIVMTQSPLSLPVTPGEPASISCQASESLVHSNRNTYLHWYLQKPGQSPQLLIYKVSNRFSGVPDRFSGSGSGTDFTLKISRVEAEDVGVYYCSQNTHVPPTFGQGTKVEIERTVAAPSVFIFPPSDEQLKSGTASVVCLLNNFYPREAKVQWKVDNALQSGNSQESVTEQDSKDSTYSLSSTLTLSKADYEKHKVYACEVTHQGLSSPVTKSFNRGEC
106 % of HoCon Ab (=100) | GpH7-B3 variant T335_12R/GpL16-k0 (antibody, human IgG1, kappa, mutation in both H chains; also called Ho Ab T335_12R; T335R) heavy: not shown light: DIVMTQSPLSLPVTPGEPASISCQASESLVHSNRNTYLHWYLQKPGQSPQLLIYKVSNRFSGVPDRFSGSGSGTDFTLKISRVEAEDVGVYYCSQNTHVPPTFGQGTKVEIERTVAAPSVFIFPPSDEQLKSGTASVVCLLNNFYPREAKVQWKVDNALQSGNSQESVTEQDSKDSTYSLSSTLTLSKADYEKHKVYACEVTHQGLSSPVTKSFNRGEC
105 % of HoCon Ab (=100) | GpH7-B3 variant T335_08L/GpL16-k0 (antibody, human IgG1, kappa, mutation in both H chains; also called Ho Ab T335_08L; T335L) heavy: not shown light: DIVMTQSPLSLPVTPGEPASISCQASESLVHSNRNTYLHWYLQKPGQSPQLLIYKVSNRFSGVPDRFSGSGSGTDFTLKISRVEAEDVGVYYCSQNTHVPPTFGQGTKVEIERTVAAPSVFIFPPSDEQLKSGTASVVCLLNNFYPREAKVQWKVDNALQSGNSQESVTEQDSKDSTYSLSSTLTLSKADYEKHKVYACEVTHQGLSSPVTKSFNRGEC
105 % of HoCon Ab (=100) | GpH7-B3 variant S337_04F/GpL16-k0 (antibody, human IgG1, kappa, mutation in both H chains; also called Ho Ab S337_04F; S337F) heavy: not shown light: DIVMTQSPLSLPVTPGEPASISCQASESLVHSNRNTYLHWYLQKPGQSPQLLIYKVSNRFSGVPDRFSGSGSGTDFTLKISRVEAEDVGVYYCSQNTHVPPTFGQGTKVEIERTVAAPSVFIFPPSDEQLKSGTASVVCLLNNFYPREAKVQWKVDNALQSGNSQESVTEQDSKDSTYSLSSTLTLSKADYEKHKVYACEVTHQGLSSPVTKSFNRGEC
108 % of HoCon Ab (=100) | GpH7-B3 variant T335_10E/GpL16-k0 (antibody, human IgG1, kappa, mutation in both H chains; also called Ho Ab T335_10E; T335E) heavy: not shown light: DIVMTQSPLSLPVTPGEPASISCQASESLVHSNRNTYLHWYLQKPGQSPQLLIYKVSNRFSGVPDRFSGSGSGTDFTLKISRVEAEDVGVYYCSQNTHVPPTFGQGTKVEIERTVAAPSVFIFPPSDEQLKSGTASVVCLLNNFYPREAKVQWKVDNALQSGNSQESVTEQDSKDSTYSLSSTLTLSKADYEKHKVYACEVTHQGLSSPVTKSFNRGEC
91.2 % of HoCon Ab (=100) | GpH7-B3 variant V266_19Q/GpL16-k0 (antibody, human IgG1, kappa, mutation in both H chains; also called Ho Ab V266_19Q; V266Q) heavy: not shown light: DIVMTQSPLSLPVTPGEPASISCQASESLVHSNRNTYLHWYLQKPGQSPQLLIYKVSNRFSGVPDRFSGSGSGTDFTLKISRVEAEDVGVYYCSQNTHVPPTFGQGTKVEIERTVAAPSVFIFPPSDEQLKSGTASVVCLLNNFYPREAKVQWKVDNALQSGNSQESVTEQDSKDSTYSLSSTLTLSKADYEKHKVYACEVTHQGLSSPVTKSFNRGEC
105 % of HoCon Ab (=100) | GpH7-B3 variant S337_07I/GpL16-k0 (antibody, human IgG1, kappa, mutation in both H chains; also called Ho Ab S337_07I; S337I) heavy: not shown light: DIVMTQSPLSLPVTPGEPASISCQASESLVHSNRNTYLHWYLQKPGQSPQLLIYKVSNRFSGVPDRFSGSGSGTDFTLKISRVEAEDVGVYYCSQNTHVPPTFGQGTKVEIERTVAAPSVFIFPPSDEQLKSGTASVVCLLNNFYPREAKVQWKVDNALQSGNSQESVTEQDSKDSTYSLSSTLTLSKADYEKHKVYACEVTHQGLSSPVTKSFNRGEC
106 % of HoCon Ab (=100) | GpH7-B3 variant T335_05P/GpL16-k0 (antibody, human IgG1, kappa, mutation in both H chains; also called Ho Ab T335_05P; T335P) heavy: not shown light: DIVMTQSPLSLPVTPGEPASISCQASESLVHSNRNTYLHWYLQKPGQSPQLLIYKVSNRFSGVPDRFSGSGSGTDFTLKISRVEAEDVGVYYCSQNTHVPPTFGQGTKVEIERTVAAPSVFIFPPSDEQLKSGTASVVCLLNNFYPREAKVQWKVDNALQSGNSQESVTEQDSKDSTYSLSSTLTLSKADYEKHKVYACEVTHQGLSSPVTKSFNRGEC
103 % of HoCon Ab (=100) | GpH7-B3 variant T335_11K/GpL16-k0 (antibody, human IgG1, kappa, mutation in both H chains; also called Ho Ab T335_11K; T335K) heavy: not shown light: DIVMTQSPLSLPVTPGEPASISCQASESLVHSNRNTYLHWYLQKPGQSPQLLIYKVSNRFSGVPDRFSGSGSGTDFTLKISRVEAEDVGVYYCSQNTHVPPTFGQGTKVEIERTVAAPSVFIFPPSDEQLKSGTASVVCLLNNFYPREAKVQWKVDNALQSGNSQESVTEQDSKDSTYSLSSTLTLSKADYEKHKVYACEVTHQGLSSPVTKSFNRGEC
107 % of HoCon Ab (=100) | GpH7-B3 variant T335_09D/GpL16-k0 (antibody, human IgG1, kappa, mutation in both H chains; also called Ho Ab T335_09D; T335D) heavy: not shown light: DIVMTQSPLSLPVTPGEPASISCQASESLVHSNRNTYLHWYLQKPGQSPQLLIYKVSNRFSGVPDRFSGSGSGTDFTLKISRVEAEDVGVYYCSQNTHVPPTFGQGTKVEIERTVAAPSVFIFPPSDEQLKSGTASVVCLLNNFYPREAKVQWKVDNALQSGNSQESVTEQDSKDSTYSLSSTLTLSKADYEKHKVYACEVTHQGLSSPVTKSFNRGEC
105 % of HoCon Ab (=100) | GpH7-B3 variant S337_19Q/GpL16-k0 (antibody, human IgG1, kappa, mutation in both H chains; also called Ho Ab S337_19Q; S337Q) heavy: not shown light: DIVMTQSPLSLPVTPGEPASISCQASESLVHSNRNTYLHWYLQKPGQSPQLLIYKVSNRFSGVPDRFSGSGSGTDFTLKISRVEAEDVGVYYCSQNTHVPPTFGQGTKVEIERTVAAPSVFIFPPSDEQLKSGTASVVCLLNNFYPREAKVQWKVDNALQSGNSQESVTEQDSKDSTYSLSSTLTLSKADYEKHKVYACEVTHQGLSSPVTKSFNRGEC
105 % of HoCon Ab (=100) | GpH7-B3 variant T335_04F/GpL16-k0 (antibody, human IgG1, kappa, mutation in both H chains; also called Ho Ab T335_04F; T335F) heavy: not shown light: DIVMTQSPLSLPVTPGEPASISCQASESLVHSNRNTYLHWYLQKPGQSPQLLIYKVSNRFSGVPDRFSGSGSGTDFTLKISRVEAEDVGVYYCSQNTHVPPTFGQGTKVEIERTVAAPSVFIFPPSDEQLKSGTASVVCLLNNFYPREAKVQWKVDNALQSGNSQESVTEQDSKDSTYSLSSTLTLSKADYEKHKVYACEVTHQGLSSPVTKSFNRGEC
102 % of HoCon Ab (=100) | GpH7-B3 variant S337_06M/GpL16-k0 (antibody, human IgG1, kappa, mutation in both H chains; also called Ho Ab S337_06M; S337M) heavy: not shown light: DIVMTQSPLSLPVTPGEPASISCQASESLVHSNRNTYLHWYLQKPGQSPQLLIYKVSNRFSGVPDRFSGSGSGTDFTLKISRVEAEDVGVYYCSQNTHVPPTFGQGTKVEIERTVAAPSVFIFPPSDEQLKSGTASVVCLLNNFYPREAKVQWKVDNALQSGNSQESVTEQDSKDSTYSLSSTLTLSKADYEKHKVYACEVTHQGLSSPVTKSFNRGEC
104 % of HoCon Ab (=100) | GpH7-B3 variant S337_15Y/GpL16-k0 (antibody, human IgG1, kappa, mutation in both H chains; also called Ho Ab S337_15Y; S337Y) heavy: not shown light: DIVMTQSPLSLPVTPGEPASISCQASESLVHSNRNTYLHWYLQKPGQSPQLLIYKVSNRFSGVPDRFSGSGSGTDFTLKISRVEAEDVGVYYCSQNTHVPPTFGQGTKVEIERTVAAPSVFIFPPSDEQLKSGTASVVCLLNNFYPREAKVQWKVDNALQSGNSQESVTEQDSKDSTYSLSSTLTLSKADYEKHKVYACEVTHQGLSSPVTKSFNRGEC
106 % of HoCon Ab (=100) | GpH7-B3 variant T335_06M/GpL16-k0 (antibody, human IgG1, kappa, mutation in both H chains; also called Ho Ab T335_06M; T335M) heavy: not shown light: DIVMTQSPLSLPVTPGEPASISCQASESLVHSNRNTYLHWYLQKPGQSPQLLIYKVSNRFSGVPDRFSGSGSGTDFTLKISRVEAEDVGVYYCSQNTHVPPTFGQGTKVEIERTVAAPSVFIFPPSDEQLKSGTASVVCLLNNFYPREAKVQWKVDNALQSGNSQESVTEQDSKDSTYSLSSTLTLSKADYEKHKVYACEVTHQGLSSPVTKSFNRGEC
104 % of HoCon Ab (=100) | GpH7-B3 variant S337_20W/GpL16-k0 (antibody, human IgG1, kappa, mutation in both H chains; also called Ho Ab S337_20W; S337W) heavy: not shown light: DIVMTQSPLSLPVTPGEPASISCQASESLVHSNRNTYLHWYLQKPGQSPQLLIYKVSNRFSGVPDRFSGSGSGTDFTLKISRVEAEDVGVYYCSQNTHVPPTFGQGTKVEIERTVAAPSVFIFPPSDEQLKSGTASVVCLLNNFYPREAKVQWKVDNALQSGNSQESVTEQDSKDSTYSLSSTLTLSKADYEKHKVYACEVTHQGLSSPVTKSFNRGEC
105 % of HoCon Ab (=100) | GpH7-B3 variant T335_07I/GpL16-k0 (antibody, human IgG1, kappa, mutation in both H chains; also called Ho Ab T335_07I; T335I) heavy: not shown light: DIVMTQSPLSLPVTPGEPASISCQASESLVHSNRNTYLHWYLQKPGQSPQLLIYKVSNRFSGVPDRFSGSGSGTDFTLKISRVEAEDVGVYYCSQNTHVPPTFGQGTKVEIERTVAAPSVFIFPPSDEQLKSGTASVVCLLNNFYPREAKVQWKVDNALQSGNSQESVTEQDSKDSTYSLSSTLTLSKADYEKHKVYACEVTHQGLSSPVTKSFNRGEC
105 % of HoCon Ab (=100) | GpH7-B3 variant S337_12R/GpL16-k0 (antibody, human IgG1, kappa, mutation in both H chains; also called Ho Ab S337_12R; S337R) heavy: not shown light: DIVMTQSPLSLPVTPGEPASISCQASESLVHSNRNTYLHWYLQKPGQSPQLLIYKVSNRFSGVPDRFSGSGSGTDFTLKISRVEAEDVGVYYCSQNTHVPPTFGQGTKVEIERTVAAPSVFIFPPSDEQLKSGTASVVCLLNNFYPREAKVQWKVDNALQSGNSQESVTEQDSKDSTYSLSSTLTLSKADYEKHKVYACEVTHQGLSSPVTKSFNRGEC
104 % of HoCon Ab (=100) | GpH7-B3 variant S337_10E/GpL16-k0 (antibody, human IgG1, kappa, mutation in both H chains; also called Ho Ab S337_10E; S337E) heavy: not shown light: DIVMTQSPLSLPVTPGEPASISCQASESLVHSNRNTYLHWYLQKPGQSPQLLIYKVSNRFSGVPDRFSGSGSGTDFTLKISRVEAEDVGVYYCSQNTHVPPTFGQGTKVEIERTVAAPSVFIFPPSDEQLKSGTASVVCLLNNFYPREAKVQWKVDNALQSGNSQESVTEQDSKDSTYSLSSTLTLSKADYEKHKVYACEVTHQGLSSPVTKSFNRGEC
